What was measured:
[1] = target: CD8 on human CD8+ cells (PBMC) (human); assay: capture of unlabelled PBMC on a pipette tip of Strep-Tactin-agarose loaded with 1.5 ug anti-CD8 Fab-TST, elution with D-biotin; flow cytometry with CD8-PE and CD3-APC; 7,6% before selection [continued]
[2] = target: CD8 on human CD8+ cells (PBMC) (human); assay: capture of PBMC pre-incubated with 1.5 ug anti-CD8 Fab-TST / multimerized soluble Strep-Tactin on Biotin-agarose, elution with D-biotin; flow cytometry with CD8-PE and CD3-APC [continued]
[3] = target: CD8 on human CD8+ cells (PBMC) (human); assay: capture of unlabelled PBMC on a pipette tip of Strep-Tactin-agarose loaded with 1.5 ug anti-CD8 Fab-TST; flow cytometry with CD8-PE and CD3-APC; 7,6% before selection [continued]
[4] = target: CD8 on human CD8+ cells (PBMC) (human); assay: capture of PBMC pre-incubated with 1.5 ug anti-CD8 Fab-TST / multimerized soluble Strep-Tactin on Biotin-agarose; flow cytometry with CD8-PE and CD3-APC

Chain of CD8 on human CD8+ cells (PBMC) (human) (P01732 22-235): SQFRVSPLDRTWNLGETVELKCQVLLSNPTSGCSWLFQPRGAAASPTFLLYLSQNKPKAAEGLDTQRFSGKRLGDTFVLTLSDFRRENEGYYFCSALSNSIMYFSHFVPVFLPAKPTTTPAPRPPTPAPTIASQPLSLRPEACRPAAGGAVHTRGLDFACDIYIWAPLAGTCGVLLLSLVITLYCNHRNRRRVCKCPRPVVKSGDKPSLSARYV

Q1-UL, % CD8 PE-positive cells in the positive (biotin-eluted) fraction [1]: 58.7%
Q1-UL, % CD8 PE-positive cells in the positive (biotin-eluted) fraction [2]: 72.4%
Q1-UL, % CD8 PE-positive cells in the wash through fraction [3]: 2.4%
Q1-UL, % CD8 PE-positive cells in the wash through fraction [4]: 0.9%
Substance: anti-CD8 Fab-fragment carrying the Twin-Strep-Tag at the C-terminus of the heavy chain (catalogue number 6-8003, IBA GmbH)
